Results on four molecules are retold here after patent US20240117061A1 (WUHAN YZY BIOPHARMA, published 2024).

Changes are numbered by the printed parent chain.

Assay [1] addresses T1, recombinant human BCMA-huFc fusion protein (human).
T1 construct: also called huBCMA-huFc
The assay is described as follows: indirect ELISA, coated antigen. Here is the method: Procedures: Human, mouse and monkey BCMA antigens were prepared into 0.5 μg/mL coating solutions with PBS buffer. The coating solutions were added to a microplate at 100 μL/well and incubated at 4° C. overnight. The residual coating solution was discarded before 3% BSA was added at 300 μL/well, and the plate was blocked for 3 h at room temperature. The microplate was washed once with PBST (PBS containing 0.1% of TWEEN 20) at 300 μL/well. The three mouse BCMA antibodies were serially 3-fold diluted from 10 μg/mL to the 7th concentration. The dilutions were added to the microplate at 100 μL/well. After a 1-h incubation at room temperature, the microplate was washed thrice with PBST at 300 μL/well. The HRP goat anti-mouse IgG antibody was 25,000-fold diluted with 1% BSA-PBST and added at 100 μL/well. After another 1-h incubation at room temperature, the microplate was washed thrice with PBST at 300 μL/well and dried. The TMB chromogenic solution was added at 100 μL/well. After a 5-min reaction at room temperature, 2 M H₂SO₄ was added at 100 μL/well to terminate the reaction. The microplate was placed on a microplate reader (Molecular Devices, SPECTRA Max plus 384) and the absorbance OD450 value was read at 450 nm wavelength.
A general note: An ELISA detects its analyte on a solid surface through an enzyme-linked reagent.

The target of assay [2] is T2, human BCMA on cells (NCI-H929, U266B1, HEK293 huBCMA) (human, UniProt Q02223 1-184).
T2 construct: whole, on cells; also called cell surface BCMA antigen
T2 sequence (looked up): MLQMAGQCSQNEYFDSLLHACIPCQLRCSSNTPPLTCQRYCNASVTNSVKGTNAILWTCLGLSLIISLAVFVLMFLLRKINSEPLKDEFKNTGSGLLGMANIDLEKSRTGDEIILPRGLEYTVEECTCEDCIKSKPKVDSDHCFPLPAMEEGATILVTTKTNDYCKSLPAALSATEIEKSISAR
The assay is described as follows: flow cytometry on U266B1 cells. The method, then:
(§1) The affinities of the 3 mouse antibodies for cell surface BCMA antigen were assessed using FACS. Materials: cell lines NCI-H929, U266B1, HEK293 cynoBCMA and HEK293; PBS buffer; FBS (fetal bovine serum; Gibco, 10099141); PE goat anti-mouse IgG Fc (Biolegend, 405307). Procedures: The cells were resuspended in PBS to prepare cell suspensions containing 200,000 cells. Mouse BCMA antibodies were added to a 96-well plate at 50 μL/well and serially 3-fold diluted from 3000 nM. The plate was incubated for 1 h at 4° C. 150 μL of precooled PBS containing 1% of FBS was added into the 96-well plate after the co-incubation with the primary antibody was finished. The mixtures were centrifuged at 300×g for 5 min and the supernatants were discarded. The above procedures were repeated once. The fluorescent secondary antibody PE goat anti-mouse IgG Fc was added at 80 μL/well. The plate was incubated at 4° C. for 30 min. 150 μL of precooled PBS containing 1% of FBS was added into the 96-well plate after the co-incubation with the secondary antibody was finished. The mixtures were uniformly mixed with a pipette. The 96-well plate was centrifuged at 300×g for 5 min in a plate centrifuge and the supernatants were discarded. The above procedures were repeated once. The cells were resuspended in 100 μL of PBS containing 1% of FBS and detected on a flow cytometry (BD Accuri™ C6).

For assay [3], the target named is T2, human BCMA on cells (NCI-H929, U266B1, …). Kind of assay: flow cytometry on NCI-H929 cells. Here is the method: as §1
In general terms: Flow cytometry measures light scatter and fluorescence of single cells or particles in a stream.

Assay [4] addresses T3, recombinant human BCMA-his fusion protein (ACRO Biosystem, Cat. No. BCA-H522y) (human, UniProt Q02223 1-54).
T3 construct: extracellular domain; Bought protein; also called huBCMA-his; hu BCMA-his; not shown: His tag
T3 sequence (looked up): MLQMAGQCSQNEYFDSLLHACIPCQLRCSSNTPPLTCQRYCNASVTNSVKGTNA
The assay is described as follows: ELISA, coated antigen. The method, then: Procedures: huBCMA-his and cynoBCMA-his antigens were prepared into 0.5 μg/mL coating solutions with PBS (pH 7.4). The coating solutions were added to a microplate at 100 μL/well and incubated at 4° C. overnight. The residual coating solution was discarded before 3% BSA was added at 300 μL/well, and the plate was blocked for 3 h at room temperature. The microplate was washed once with PB ST at 300 The stock humanized monoclonal antibody solutions were serially 3-fold diluted to the 11th concentration. The dilutions were added to the microplate at 100 μL/well. After a 1-h incubation at room temperature, the microplate was washed thrice with PBST at 300 The HRP-conjugated 6*His, His-Tag antibody was 25,000-fold diluted with 1% BSA-PBST and added at 100 After another 1-h incubation at room temperature, the microplate was washed thrice with PB ST at 300 μL/well and dried. The TMB chromogenic solution was added at 100 μL. After a 5-min reaction at room temperature, 2 M H2504 was added at 100 μL/well to terminate the reaction. The microplate was placed on a microplate reader (Molecular Devices, SPECTRA Max plus 384) and the absorbance OD450 value was read at 450 nm wavelength.

Assay [5] has as its target T2, human BCMA on cells (NCI-H929, U266B1, …). The assay is described as follows: flow cytometry on NCI-H929 cells. The method, then:
Procedures: Preparation of cell suspensions: The cells were resuspended in PBS, and the cell density was adjusted to 2×10⁵ cells/well. Mouse antibodies were added to a 96-well plate at […] and serially 3-fold diluted from 3000 nM. The plate was incubated for 1 h at 4° C. 150 μL of precooled PBS containing 1% of FBS was added into the 96-well plate after the co-incubation with the primary antibody was finished. The mixtures were centrifuged at 300×g for 5 min and the supernatants were discarded. The above procedures were repeated once. The fluorescent secondary antibody PE […] (Biolegend, 409304) was added at 80 μL/well. The plate was incubated at 4° C. for 30 min. 150 μL of precooled PBS containing 1% of FBS was added into the 96-well plate after the co-incubation with the secondary antibody was finished. The mixtures were uniformly mixed with a pipette. The 96-well plate was centrifuged at 300×g for 5 min in a plate centrifuge and the supernatants were removed. The above procedures were repeated once. The cells were resuspended in 100 μL of PBS containing 1% of FBS and detected on a flow cytometry (BD Accuri™ C6).
This is another data set of the same source.

In assay [6] the target is T3, recombinant human BCMA-his fusion …. The assay is described as follows: SPR (Biacore T200), anti-His capture on CM5, 1:1 fit. The method, then: In this example, the antigen-antibody binding kinetics and affinity were determined by the BIACORE method.
Procedures: The anti-histidine antibody (GE, His capture Kit, Cat. No. 28995056) was conjugated to the Sereis S Sensor Chip CMS to capture the test articles, thus acquiring the binding kinetic and affinity data of the antigen, as an analyte, to the test articles. The initial concentration for detecting the binding of the antigen and the test articles was 10 nM. […] The Start up flushing process (1×HBS-EP+buffer) was performed at least thrice before loading to equilibrate the system. The association and dissociation tendencies between the antigen and the test articles were detected. When the dissociation was completed, a regeneration reagent was loaded for regeneration before the detection of the next concentration was performed. After the detection was finished, the data were fitted by using a 1:1 Binding fitting mode in data analysis software (Biacore T200 Evaluation Software).

For assay [7] the target is unchanged. Kind of assay: competitive ELISA, coated huBCMA-his, competitor APRIL-biotin.
For assay [8] the target is unchanged. Kind of assay: competitive ELISA, coated huBCMA-his, competitor 83A10-biotin.
The target is the same in assay [9]. Kind of assay: competitive ELISA, coated huBCMA-his, competitor 83A10-biotin, antibody at 7 µg/mL.
Assay [10] has the same target. Kind of assay: competitive ELISA, coated huBCMA-his, competitor APRIL-biotin. The method, then:
The 96-well microplate was treated with 100 μL of 0.5 μg/mL huBCMA-his in PBS and incubated overnight at 4° C. The plate was then washed thrice with PBS washing buffer containing 0.1% of Tween-20 and blocked with 300 μL of PBS containing 1% of BSA for 2 h. 100 μL of each BCMA antibody was added to the plate. […] The plate was incubated at 37° C. for 1 h, and unbound secondary antibody was washed with PBS washing buffer containing 0.1% of Tween-20. The TMB chromogenic solution was added at 100 μL/well. After a 5-min reaction at room temperature, 2 M H₂SO₄ was added at 100 μL/well to terminate the reaction. The microplate was placed on a microplate reader (Molecular Devices, SPECTRA Max plus 384) and the absorbance OD450 value was read at 450 nm wavelength.
The source holds these as a separate data set.

B1: mouse monoclonal antibody 18F6G3H9 (antibody, V domains shown)
VH: EVQLQQSGPELVKPGTSVEMSCKASGYTFTDYNIHWVRQRHGESLEWLGYINPNNGVTNFNQKFKGKATLTVNKSSSTAYMELRSLTSDDSAVYYCSSGLFDGYPFPYWGQGTLVTVSA
VL: DIVLTQSPASLVVSLGQRATISCRASKSVSTSGYNYIHWYQQKPGQPPKLLIFLASNLKSGVPARFSGGGSGTDFTLNIHPVEEDDAATYFCQHNRELPYTFGGGTKVEIK
notes: detected with anti-mouse IgG; also called Clone 18F6G3H9; BCMA-HC1/BCMA-LC1
On to B1, for which the EC50 came to 0.0705 nM in assay [1], 1.6 nM in assay [2] and 3.1 nM in assay [3].

B2: humanized antibody hu-mAb2 (VH2+VL2) (antibody, V domains shown)
VH: QVQLVQSGAEVKKPGSSVKVSCKVSGYTFTDHTIHWMKQAPGQGLEWIGYIYPRNGNTKYNEKFKGKATLTADKSTSTAYMELSSLRSEDTAVYFCARYDYDGYFDVWGQGTLVTVSS
VL: DVVMTQTPLSLSVTPGQPASISCRSSQSHVHSDGHTYLHWYLQKPGQSPELLIYKVSNRFSGVPDRFSGSGSGTDFTLKISRVEAEDVGVYFCSQNTHFPWTFGGGTKVEIK
notes: human IgG1/kappa named only as preferred
For the molecule B2, the EC50 in [4] is 0.00271 nM. The molecule also had an EC50 in [5] of 0.83 nM. In [6], the Kd was determined as 1.15 nM, the koff turned out to be 0.0258 s⁻¹ and the kon amounted to 2.24e+07 M⁻¹ s⁻¹. In addition, the half-maximal inhibitory concentration (IC50) in assay [7] was found to be 2.76 µg/mL. Further, the IC50 in assay [8] came out at 8.35 µg/mL. Also, the competition in [9] turned out to be 30%.

B3: mouse monoclonal antibody 202E11H10E3 (antibody, V domains shown)
VH: QVQLQQSDAELVKPGTSVKISCKVSGYTFTDHTIHWMKQRPEQGLEWIGYIYPRNGNTKYNEKFKGKATLTADKSSSTAYMHLNSLTSEDSAVYFCARYDYDGYFDVWGTGTTVTVSS
VL: B2 VL with S12P, T14S, P15L, Q17D, P18Q, V88L, V109L
notes: detected with anti-mouse IgG; also called Clone 202E11H10E3; BCMA-HC2/BCMA-LC2
B3: the EC50 in [1] was 0.0764 nM; in assay [2], 1 nM; in assay [3], 1.1 nM.

B4: soluble human APRIL (ACRO, Cat. No. APL-H5244) (ligand, UniProt O75888 115-250, looked up)
chain: HSVLHLVPINATSKDDSDVTEVMWQPALRRGRGLQAQGYGVRIQDAGVYLLYSQVLFQDVTFTMGQVVSREGQGRQETLFRCIRSMPSHPDRAYNSCYSAGVFHLHQGDILSVIIPRARAKLNLSPHGTFLGFVKL
notes: also called APRIL ligand; APRIL-biotin
Turning to B4, the IC50 in [10] stood at 0.0247 µg/mL; in assay [7], 3.7 µg/mL.

The EC50 is the midpoint of the concentration-response curve. What is called Kd is the constant that tells how readily two partners part at equilibrium. Usually koff stands for a measure of how fast the partners let go of each other. One may read the kon as the second-order rate constant of association. As usually defined, the IC50 is the midpoint of a concentration-inhibition curve.
